Measured values published in the DeepSol protein solubility set.

test: soluble on expression in E. coli; label from the status in PepcDB or PDB records

Row | Sequence | soluble on expression in E. coli
1 | SASSQGKNELKLADWMATLPESMHSIPLTNLAIPGSHDSFSFYIDEASPVGPEQPETVQNFVSVFGTVAKKLMRKWLATQTMNFTGQLGAGIRYFDLRISTKPRDPDNELYFAHGLFSAKVNEGLEEINAFLTDHHKEVVFLDFNHFYGMQKYHHEKLVQMLKDIYGNKMCPAIFAQEVSLKYLWEKDYQVLVFYHSPVALEVPFLWPGQMMPAPWANTTDPEKLIQFLQASITERRKKGSFFISQVVLTPKASTVVKGVASGLRETITERALPAMMQWVRTQKPGESGINIVTADFVELGDFISTVIKLNYVFDEGEANT | soluble
2 | MKQTVLLLFTALFLSGCSVASADDSVPRFTEEGKYIGSADPHTIAVSLNGEETMIQVPKDKRDECESLPDQTHVLVKYTKKDNGTLQLEDIQLRKTS | soluble
3 | MGSDKIHHHHHHMQLPISQYNELLQKKLEKLTALLHPFNAPDIQVFDSPTSHYRMRAEFRIWHEQDDFYHIMFDQATLQRYRVDEFPIASMLINRMMQTLLPLLKQQEVLHKKLFQIDYLSTLSNKIIVSLLYHKTLTEEWESAAKNLKDLLEKQDFDVQIIGRASKQKICFEQDYVDEVLPVNGRNYVYRQVENSFTQPNATVNCKMLEWAIDCTQNSEGDLLELYCGNGNFSIALAQNFRKVLATEIAKPSVAAAQFNIAENKVDNLQIIRMSAEEFTQAMNGVRAFNRLKGIDLKSYECNTIFVDPPRAGLDPDTVKLVQNYDRILYISCNPHTLCDNLVELSKTHRIEKAALFDQFPYTDHMESGLWLIRK | not soluble
4 | MSLNYRHAFHAGNFADLHKHAILLAMLSALQEKSPALAVIDTHAGAGGYDLAGEMARRSGEAQAGIFRLKAAADAPAVFQPLLNAITQMNGGKDGDLYPGSPRLMARALRGADRYVGCELRDDDADLLRKTLAPCANARALQADGFDTAVKDAGKGGRAFIVIDPPFERPDDYDRIVATTRAVLARAPDAALAIWLPIKDLETFDAFLRAMETVTSDLLVAELRLRPLTDPMKMNGCAMVMIGAPPSVEDAAVAAGDWIATRLGEPGGRSRVWRTEGHHHHHH | soluble
5 | MTEIKYKVITKDAFALPYTIIKAKNQPTKGVIVYIHGGGLMFGKANDLSPQYIDILTEHYDLIQLSYRLLPEVSLDCIIEDVYASFDAIQSQYSNCPIFTFGRSSGAYLSLLIARDRDIDGVIDFYGYSRINTEPFKTTNSYYAKIAQSINETMIAQLTSPTPVVQDQIAQRFLIYVYARGTGKWINMINIADYTDSKYNIAPDELKTLPPVFIAHCNGDYDVPVEESEHIMNHVPHSTFERVNKNEHDFDRRPNDEAITIYRKVVDFLNAITMV | soluble
6 | MITMPKLFIYHANQCNPKKCTSLKMAKMNKAILLKNPYKVPKNSLILNPYAEKALSPEDKEIVEKFGITALDCSWKEAELMFKKFKFKNQRSLPFLVACNPINYGKPCMLSTLEAFIAALYITNFKDEAWDLTSCFKWAETFIKVNYELLERYSNAKNSMEVVEIQQDFLRKLEHHHHHH | soluble
7 | MSHCSCHDKPQHSLLPAAYRILSITRHTPLEWNFRVAVDFPAHWGQFVEVSLPRVGEAPISVSDYGDGWIDLLIRNVGKVTSALFTLKEGDNVWLRGCYGNGYPVDTLRHKPLLVVAGGTGVAPVKGLMRYFVENPQEIGQLDMILGYKNRDCVLYKEEMATWRGKHNLVLTLDEGEADDRYQIGRVTDRLADMTLSDIDTMQAIVVGPPIMITFTVKMLLQKGLKPEQIWVDYERRMACSVGKCGHCRMGEVYVCTDGPIFNYAVAQRFAD | not soluble
8 | MGSDKIHHHHHHAGTQTAQTQALDSDGIPTGGEWITMFDGKTLNGWRGYCRQDVPLGWVVEDGSITYKGSDNKADTGFGDLIYDKKFKNFVFEIEWKIDKAGNSGIFYTAQEIEGTPIYYSSPEYQLLDNENMPDAWEGCDGNRQAGAVYDMIMPDPQPVKPYGNWNKTRIVVYNQRVIHYMNDVKILEFQFGTPVWRALVDHSKFSKFSTSPEKCPEAYDLMLQCGKQPGYIGMQDHGYGVCFRNIRIKEL | not soluble
9 | MGSDKIHHHHHHMASTTPEGLEIRPRHLDFDLPDPMPRHWHSGDAFKTHMFNAMSVLFPDGERFFIDSVRHYRERVEDPALKQQIRGFIGQEGHHSREHLVYSDRLRALGYDIDRLEGGAKRRIRFAQQKLHPSRQLAATAALEHLTAIMADGLLSNPRWLEGADPTMARLWRWHALEETEHKAVAYDVFMLVNGKARLRRRAMVQGTFFFALDTTKGLVHMLKRDGLLWNFKVWRDGIKWLWGKDGVFRSLVGVYLDFYKKDFHPWQHNNLHLIEQYRDQFEPEPKAA | not soluble
10 | MAQSNTTTTTLVVKSEDQEEVQEEHVLRLRAPPSPPHVTWAEGVVDNEHMGRLKSNCCCIYVAPRQWDDPSTWEPNEYETEHCRGHTLPERKKKKEDGGDEGDDENKENKDNKDNKDNKDNKDNNGCGCDHC | not soluble
11 | MNILKIRHGQGHIAKIEAQSFVDGEGVRCSLYVSGCPFACENCYNKVAQNFKYGEPFHEDTLEEIMEYCAPNYISGLSILGGEPFCNVDITLKCAQTFRKRFGNTKSLWVWTGFLFEYLERDSAERKTLLELIDVLVDGPFINHLYRPNLPYKGSMNQRVIDVQASLQKRRVCEYIKSLEHHHHHH | not soluble
12 | MAAHGGSAASSALKGLIQQFTTITGASESVGKHMLEACNNNLEMAVTMFLDGGGIAEEPSTSSASVSTVRPHTEEEVRAPIPQKQEILVEPEPLFGAPKRRRPARSIFDGFRDFQTETIRQEQELRNGGAIDKKLTTLADLFRPPIDLMHKGSFETAKECGQMQNKWLMINIQNVQDFACQCLNRDVWSNEAVKNIIREHFIFWQVYHDSEEGQRYIQFYKLGDFPYVSILDPRTGQKLVEWHQLDVSSFLDQVTGFLGEHGQLDGLSSSPPKKCARSESLIDASEDSQLEAAIRASLQETHFDSTQTK | not soluble
13 | MGSDKIHHHHHHMKRVERVIITCAVTGSIHTPSMSPYLPVTPEQIAADSVAAAQAGAAMLHLHARNPRTGRPEQTPERFMEFLPRIREQCGAILNITTGGGLGMTLEERLAPAIAARPEVASMNMGSLNFNISGAAGKIRQFQHEWEKPYLEGTNDFILSNTFSQIEHGMRVLGESGTRFEFECYDVGHLYNLAHFVDRGLVKPPFFVQCIFGILGGIGADPENLLHMRAIADRLFGADYLLSVLAAGRHQMPFVSLSAILGGSVRVGLEDSLFIARHQLARSNAEQVAKIRRIVEELGLTVATADEARAMLATKGGDNVGF | not soluble
14 | MPNPPAKEDTWAFGPIGSPFPDNPVKALGQQNMYVALWYKNGRPMHGRAWNNGGVIECSFPYNKSELTGVKDLGGQIQVLQYKGNHLSLGYWYNWIKYSDRFDKMDKGAEMLRCGDSFPILWSERPGGALLGYADNKTEIARFSHDGKVDEVSGSALANMLIIARELKGGPPYCECEECKSEPPKPIVRVTLNEWADFRCGDPWPTVGTPVRALGRSLDTLPGENPDQYVALWYQSGEPVMGRIWNDGGKIAACFGWGGHEYRQKIGSIQILYELPEAIRGFDYDWKPFPEAAQFGAKEWIPVHVDHHKGNISPAVLIVDGKEILGKADIRNERATIGYGGTEKVLVGPAVHSCMVLCRKAKPGCTID | soluble
15 | MKKLAILLVCAAMLASCNGLGGGSKDLKAENDSLLMELTQRNAELDEMMGTFNEVQEGFRKINAAESRVDLTRGTISENSATAKQQIASDIEFITKQMEENKAQIAKLQAMLKSSKNNSAQLKKAVESLTQELVAKTQRIEELQAELASKNIRIQELDAAVTGLTADKESLAAENEAKAKTVAEQDKAINSAWFVFGTKSELKTQKILEKGDVLKSADFNKDYFTQIDIRTTKEIKLYSKRAELLTTHPAKSYELVKDDKGQLTLKITNPKEFWSVSKYLVIQVK | not soluble
16 | MSDNNDRMYELEYPSPEVSGQTAGGPTLIVALQGYADAGHAVESSSSHLMDALDHRLIASFNNDELIDYRSRRPVVVIEHNEVTSMDELNLGLHVVRDNDNKPFLMLSGPEPDLRWGDFSNAVVDLVEKFGVENTICLYAAPMTVPHTRPTVVTAHGNSTDRLKDQVSLDTRMTVPGSASLMLEKLLKDKGKNVSGYTVHVPHYVSASPYPAATLKLLQSIADSADLNLPLLALERDAEKVHRQLMEQTEESSEIQRVVGALEQQYDSE | not soluble
17 | MYVLIGGAGLIGQQLARQVLDQGHTVAVIDQDPQVCKMVRDRLGAMAFEGSAVNTDILLEAGICRADAVAAVLRQDALNLALVTLACHYGVSRIISRISQQDFIEPMRLAGAHHIISTVDLVVSTMVNAIECPQVESMLHFEQGQIEVFKLTLDSQSPVIGRSVAAIAQDRNFPSSSLIIGYQSHPQADLVIPSGNTVLEANATVLLATKPGLVQSLVNFLMPSLFSPLQPAGVLHQLEHHHHHH | soluble
18 | MAPKQPEKIENPPMASAPSSEKESGSTENEYGSSGEETNSSDDEHEEARDNVISTPLSFGQELVSFFKVENLTYLGIDEAKWIAYWDMVKDGPKKREVEKQLKKMLAMQMELFMMRTGFTKEVATVLFKQDNASSSGK | not soluble
19 | DLILPFYKAGKVSFYQGDLDVLINFLEPDVLVNAANGDLRHVGGVARAIDVFTGGKLTKRSKEYLKSSKAIAPGNAVLFENVLEHLSVLNAVGPRNGDSRVEGKLCNVYKAIAKCDGKILTPLISVGIFKVKLEVSLQCLLKTVTDRDLNVFVYTDQERVTIENFFNG | soluble
20 | MKIVEALKANGVEVIITEKADVLIKNFENAHISYALSADEKTGVIFFGGFEEKMKAGLAEHHVAILKEEDVKENILLAYEHARRKSDVLFASSSASKTADIEGKTVFGMHGPRKFTVVLVVRK | not soluble
21 | VMPLILLPAVDVVEGRAVRLVQGKAGSQTEYGSAVDAALGWQRDGAEWIHLVDLDAAFGRGSNHELLAEVVGKLDVQVELSGGIRDDESLAAALATGCARVNVGTAALENPQWCARVIGEHGDQVAVGLDVQIIDGEHRLRGRGWETDGGDLWDVLERLDSEGCSRFVVTDITKDGTLGGPNLDLLAGVADRTDAPVIASGGVSSLDDLRAIATLTHRGVEGAIVGKALYARRFTLPQALAAVRD | soluble
22 | MSLREAVLANLKKITDPVSGQDIVSAGIVRALNVEGDTVRFVIEIDPKLAERMEPVRAAAEKAAQMVEGVAKVSAMMTAHSDKAPPELKPRAKAAPQGPQPVAGVDRIVAVASGKGGVGKSTVSANLACALAAEGRRVGLLDADVYGPSQPRMLGVSGRPASPDGKTILPLRNHGVTMMSMGLMTNEGQAVVWRGPMLMGALQQMMNQVQWGGLDVLIVDLPPGTGDVQLTLSQKFAVDGAIIVSTPQDVALIDARKGIDMFRQLKTPILGMIENMSTHICSNCGHEEHVFGHGGVAAEAEKLGVPLLGEIPLHLDIRVAADGGAPIVVSKPDSPQAEAFRRIARDLIAKGQALEHHHHHH | soluble
23 | MGHHHHHHSHMDVPYLINCLVFLFCFSKSNEHSSEYPFVRDLSLEGRLLAKNICTFNIHIHIYTHFFLRQRFTLSPRLKCSGMIIVHCSLYLLGSSNPPT | not soluble
24 | MSFKDYEYKRPNIEELKEKFTVALEKFDNAKTVEEQKQVIHSINEIRNDFGTMGNLCYIRHSVDTTDAFYKEEQDFFDEFSPVVQGYGTKYYNALIHSPFREELEAYYGKQLFALAECDLKTYSDEVVKDLQLENKLSSQYTQLLASAKIDFAGEERTLSQLIPFMQGKERSERKAASEAYYGFLAENEEELDRIYDELVKVRTKIAKSLGFKNFVELGYARMYRTDYNAEMVANYRQQVLDYIVPVTTELRKRQQARIGVEKLAYYDENFEFPTGNPTPKGDADWIVNHGKTMYKELSAETDEFFNFMLDNDLLDLVAKKGKAGGGYCTYIENYKAPFIFSNFNGTSGDIDVLTHEAGHAFQVYESRKFEIPEYNWPTYEACEIHSMSMEFFTWPWMKLFFEEDADKYYFSHLSSALLFLPYGVSVDEYQHYVYENPEASPEERKTAWRNIEKKYLPHRDYEDNDYLERGGFWQRQGHIYSSPFYYIDYTLAQICALQFWKRARDNRQEAWEDYVNLCQQGGSKSFLELVEVANLTSPFAEGCVKSVITEIEAWLHAIDDTKL | not soluble
